Laboratory results taken from patent US20200024330A1.

How the values were obtained:
[1] = biological target: Env of all HIV-1 pseudoviruses of the cross-clade 162-pseudovirus panel (n = 162); assay: cell-based or functional assay
[2] = biological target: Env of the clade B HIV-1 pseudoviruses of the cross-clade 162-pseudovirus panel (n = 31); assay: cell-based or functional assay
[3] = biological target: Env of the clade D HIV-1 pseudoviruses of the cross-clade 162-pseudovirus panel (n = 25); assay: cell-based or functional assay
[4] = biological target: Env of the clade G HIV-1 pseudoviruses of the cross-clade 162-pseudovirus panel (n = 15); assay: cell-based or functional assay
[5] = biological target: HIV-1 Env of isolate MGRM-C-026 (HIV-1); assay: cell-based or functional assay
[6] = biological target: HIV-1 JR-CSF Env F210A (HIV-1 JR-CSF) (UniProt P20871); assay: cell-based or functional assay
[7] = biological target: HIV-1 JR-CSF Env H330A (HIV-1 isolate JR-CSF) (UniProt P20871); assay: cell-based or functional assay
[8] = biological target: HIV-1 JR-CSF Env I307A (HIV-1 JR-CSF) (UniProt P20871); assay: cell-based or functional assay
[9] = biological target: HIV-1 JR-CSF Env I309A (HIV-1 JR-CSF) (UniProt P20871); assay: cell-based or functional assay
[10] = biological target: HIV-1 JR-CSF Env I414A (HIV-1 (isolate JR-CSF)) (UniProt P20871); assay: cell-based or functional assay
[11] = biological target: HIV-1 JR-CSF Env I415A (HIV-1 (isolate JR-CSF)) (UniProt P20871); assay: cell-based or functional assay
[12] = biological target: HIV-1 JR-CSF Env I423A (HIV-1 (isolate JR-CSF)) (UniProt P20871); assay: cell-based or functional assay
[13] = biological target: HIV-1 JR-CSF Env I424A (HIV-1 (isolate JR-CSF)) (UniProt P20871); assay: cell-based or functional assay
[14] = biological target: HIV-1 JR-CSF Env N241A (HIV-1 JR-CSF) (UniProt P20871); assay: cell-based or functional assay
[15] = biological target: HIV-1 JR-CSF Env N301A (HIV-1 JR-CSF) (UniProt P20871); assay: cell-based or functional assay
[16] = biological target: HIV-1 JR-CSF Env N302A (HIV-1 JR-CSF) (UniProt P20871); assay: cell-based or functional assay
[17] = biological target: HIV-1 JR-CSF Env N332A (HIV-1 isolate JR-CSF) (UniProt P20871); assay: cell-based or functional assay
[18] = biological target: HIV-1 JR-CSF Env N411A (HIV-1 (isolate JR-CSF)) (UniProt P20871); assay: cell-based or functional assay
[19] = biological target: HIV-1 JR-CSF Env Q337A (HIV-1 isolate JR-CSF) (UniProt P20871); assay: cell-based or functional assay
[20] = biological target: HIV-1 JR-CSF Env R350A (HIV-1 isolate JR-CSF) (UniProt P20871); assay: cell-based or functional assay
[21] = biological target: HIV-1 JR-CSF Env S199A (HIV-1 JR-CSF) (UniProt P20871); assay: cell-based or functional assay
[22] = biological target: HIV-1 JR-CSF Env S334A (HIV-1 isolate JR-CSF) (UniProt P20871); assay: cell-based or functional assay
[23] = biological target: HIV-1 JR-CSF Env T297A (HIV-1 JR-CSF) (UniProt P20871); assay: cell-based or functional assay
[24] = biological target: HIV-1 JR-CSF Env T319A (HIV-1 isolate JR-CSF) (UniProt P20871); assay: cell-based or functional assay
[25] = biological target: HIV-1 JR-CSF Env T320A (HIV-1 isolate JR-CSF) (UniProt P20871); assay: cell-based or functional assay
[26] = biological target: HIV-1 JR-CSF Env T341A (HIV-1 isolate JR-CSF) (UniProt P20871); assay: cell-based or functional assay
[27] = biological target: HIV-1 JR-CSF Env T388A (HIV-1 (isolate JR-CSF)) (UniProt P20871); assay: cell-based or functional assay
[28] = biological target: HIV-1 JR-CSF Env T394A (HIV-1 (isolate JR-CSF)) (UniProt P20871); assay: cell-based or functional assay
[29] = biological target: HIV-1 JR-CSF Env T413A (HIV-1 (isolate JR-CSF)) (UniProt P20871); assay: cell-based or functional assay
[30] = biological target: WT JR-FL gp120 (HIV-1 (isolate JR-FL)); assay: ELISA on coated gp120; EC50 by nonlinear regression
[31] = biological target: JR-FL gp120 ΔV1/ΔV2 (HIV-1 (isolate JR-FL)); assay: as above
[32] = biological target: HIV-1 92BR020 envelope glycoprotein (Env) (HIV-1); assay: cell-based or functional assay
[33] = biological target: HIV-1 APV17 envelope glycoprotein (Env) (HIV-1); assay: cell-based or functional assay
[34] = biological target: HIV-1 APV6 envelope glycoprotein (Env) (HIV-1); assay: cell-based or functional assay
[35] = biological target: HIV-1 JRFL envelope glycoprotein (Env) (HIV-1); assay: cell-based or functional assay
[36] = biological target: HIV-1 MGRM-A-010 envelope glycoprotein (Env) (HIV-1); assay: cell-based or functional assay
[37] = biological target: HIV-1 MGRM-C-027 envelope glycoprotein (Env) (HIV-1); assay: cell-based or functional assay

B1: PGT-131 (antibody, V domains shown)
VH: QVQLQESGPGLVKPSETLSLTCTVSGDSINTGHHYWGWVRQVPGKGPEWIAHIHYNTAVLHNPALKSRVTISIFTLKNLITLSLSNVTAADTAVYFCVRSGGDILYYIEWQKPHWFYPWGPGILVTVSS
VL: QSALTQPPSASGSLGQSLTISCSGTGSDIGSWNFVSWYQQFPGRAPNLIIFEVNRRRSGVPDRFSGSKSGNTASLTVSGLRSEDEAEYFCSSLSGRWDIVFGGGTKVTVL
B1 showed a Median IC50 against viruses neutralized with an IC50 <50 µg/ml [1] of 0.52 µg/mL, a Median IC50 against viruses neutralized with an IC50 <50 µg/ml [2] of 0.07 µg/mL and a Median IC50 against viruses neutralized with an IC50 <50 µg/ml [3] of 0.85 µg/mL. For the same binder, the Median IC50 against viruses neutralized with an IC50 <50 µg/ml [4] was 3.54 µg/mL, the Primary Neutralization Index (B cell culture well 5136 H1) [5] was 1.2 and the Fold IC50 increase relative to wild-type [6] was 1 fold. The Fold IC50 increase relative to wild-type [7] was 0.5 fold, the Fold IC50 increase relative to wild-type [8] was greater than 170 fold and the Fold IC50 increase relative to wild-type [9] was 8.8 fold. For the same binder, the Fold IC50 increase relative to wild-type [10] was 1 fold, the Fold IC50 increase relative to wild-type [11] was 0.6 fold and the Fold IC50 increase relative to wild-type [12] was greater than 80 fold. For the same binder, the Fold IC50 increase relative to wild-type [13] was 4.8 fold, the Fold IC50 increase relative to wild-type [14] was 0.7 fold and the Fold IC50 increase relative to wild-type [15] was greater than 170 fold. For the same binder, the Fold IC50 increase relative to wild-type [16] was 1 fold, the Fold IC50 increase relative to wild-type [17] was 0.5 fold and the Fold IC50 increase relative to wild-type [18] was 0.6 fold. It also gave a Fold IC50 increase relative to wild-type [19] of 1.3 fold, a Fold IC50 increase relative to wild-type [20] of 1.3 fold and a Fold IC50 increase relative to wild-type [21] of 1.6 fold. For the same binder, the Fold IC50 increase relative to wild-type [22] was 0.4 fold, the Fold IC50 increase relative to wild-type [23] was 1.2 fold and the Fold IC50 increase relative to wild-type [24] was 0.9 fold. It also gave a Fold IC50 increase relative to wild-type [25] of 4.5 fold, a Fold IC50 increase relative to wild-type [26] of 1.3 fold and a Fold IC50 increase relative to wild-type [27] of 0.6 fold. It also gave a Fold IC50 increase relative to wild-type [28] of 0.9 fold, a Fold IC50 increase relative to wild-type [29] of 0.6 fold and an EC50 [30] of 0.4 µg/mL.

B2: PGT-128 (antibody, V domains shown)
VH: QPQLQESGPTLVEASETLSLTCAVSGDSTAACNSFWGWVRQPPGKGLEWVGSLSHCASYWNRGWTYHNPSLKSRLTLALDTPKNLVFLKLNSVTAADTATYYCARFGGEVLRYTDWPKPAWVDLWGRGTLVTVSS
VL: QSALTQPPSASGSPGQSITISCTGTSNNFVSWYQQHAGKAPKLVIYDVNKRPSGVPDRFSGSKSGNTASLTVSGLQTDDEAVYYCGSLVGNWDVIFGGGTKLTVL
Work on B2 yielded a Median IC50 against viruses neutralized with an IC50 <50 µg/ml [1] of 0.07 µg/mL, a Median IC50 against viruses neutralized with an IC50 <50 µg/ml [2] of 0.01 µg/mL and a Median IC50 against viruses neutralized with an IC50 <50 µg/ml [3] of 0.02 µg/mL. For the same binder, the Median IC50 against viruses neutralized with an IC50 <50 µg/ml [4] was 0.04 µg/mL, the Polyclonal Transfectant Neutralization Index (well 5114 A19) [5] was 32.2 and the Primary Neutralization Index (B cell culture well 5114 A19) [5] was 17.1. It also gave a Fold IC50 increase relative to wild-type [6] of 0.8 fold, a Fold IC50 increase relative to wild-type [7] of 0.3 fold and a Fold IC50 increase relative to wild-type [8] of 3.7 fold. The Fold IC50 increase relative to wild-type [9] was 2.8 fold, the Fold IC50 increase relative to wild-type [10] was 1.4 fold and the Fold IC50 increase relative to wild-type [11] was 0.7 fold. It also gave a Fold IC50 increase relative to wild-type [12] of 2.6 fold, a Fold IC50 increase relative to wild-type [13] of 1.3 fold and a Fold IC50 increase relative to wild-type [14] of 0.7 fold. It also gave a Fold IC50 increase relative to wild-type [15] of 10.7 fold, a Fold IC50 increase relative to wild-type [16] of 1.5 fold and a Fold IC50 increase relative to wild-type [17] of 1.4 fold. For the same binder, the Fold IC50 increase relative to wild-type [18] was 0.7 fold, the Fold IC50 increase relative to wild-type [19] was 0.7 fold and the Fold IC50 increase relative to wild-type [20] was 1 fold. The Fold IC50 increase relative to wild-type [21] was 1 fold, the Fold IC50 increase relative to wild-type [22] was 1.4 fold and the Fold IC50 increase relative to wild-type [23] was 1.1 fold. For the same binder, the Fold IC50 increase relative to wild-type [24] was 0.5 fold, the Fold IC50 increase relative to wild-type [25] was 1 fold and the Fold IC50 increase relative to wild-type [26] was 1.3 fold. It also gave a Fold IC50 increase relative to wild-type [27] of 1 fold, a Fold IC50 increase relative to wild-type [28] of 3 fold and a Fold IC50 increase relative to wild-type [29] of 1 fold. The EC50 [31] was 0.3 µg/mL and the EC50 [30] was 0.1 µg/mL.

B3: PGT-130 (antibody, V domains shown)
VH: QVQLQESGPGLVKPAETLSLTCSVSGESINTGHYYWGWVRQVPGKGLEWIGHIHYTTAVLHNPSLKSRLTIKIYTLRNQITLRLSNVTAADTAVYHCVRSGGDILYYYEWQKPHWFSPWGPGIHVTVSS
VL: QSALTQPPSASGSLGQSVTISCNGTSSDIGGWNFVSWYQQFPGRAPRLIIFEVNKRPSGVPGRFSGSKSGNSASLTVSGLQSDDEGQYFCSSLFGRWDVVFGGGTKLTVL
For B3, the Median IC50 against viruses neutralized with an IC50 <50 µg/ml [1] was 0.18 µg/mL, the Median IC50 against viruses neutralized with an IC50 <50 µg/ml [2] was 0.09 µg/mL and the Median IC50 against viruses neutralized with an IC50 <50 µg/ml [3] was 0.65 µg/mL. The Median IC50 against viruses neutralized with an IC50 <50 µg/ml [4] was 4.14 µg/mL, the IC50 neutralization [32] was 1.12 µg/mL and the IC50 neutralization [33] was greater than 10 µg/mL. For the same binder, the IC50 neutralization [34] was greater than 10 µg/mL, the Polyclonal Transfectant Neutralization Index (well 5147 N6) [5] was 1.05 and the Primary Neutralization Index (B cell culture well 5147 N6) [5] was 3. It also gave a Fold IC50 increase relative to wild-type [6] of 1.7 fold, a Fold IC50 increase relative to wild-type [7] of 0.9 fold and a Fold IC50 increase relative to wild-type [8] of 1000 fold. For the same binder, the Fold IC50 increase relative to wild-type [9] was greater than 77.9 fold, the Fold IC50 increase relative to wild-type [10] was 0.7 fold and the Fold IC50 increase relative to wild-type [11] was 0.6 fold. It also gave a Fold IC50 increase relative to wild-type [12] greater than 1000 fold, a Fold IC50 increase relative to wild-type [13] of 3.9 fold and a Fold IC50 increase relative to wild-type [14] of 0.6 fold. The Fold IC50 increase relative to wild-type [15] was greater than 1000 fold, the Fold IC50 increase relative to wild-type [16] was 1.1 fold and the Fold IC50 increase relative to wild-type [17] was 0.6 fold. The Fold IC50 increase relative to wild-type [18] was 0.6 fold, the Fold IC50 increase relative to wild-type [19] was 1 fold and the Fold IC50 increase relative to wild-type [20] was 0.5 fold. The Fold IC50 increase relative to wild-type [21] was 0.9 fold, the Fold IC50 increase relative to wild-type [22] was 0.5 fold and the Fold IC50 increase relative to wild-type [23] was 0.9 fold. For the same binder, the Fold IC50 increase relative to wild-type [24] was 1.6 fold, the Fold IC50 increase relative to wild-type [25] was 0.9 fold and the Fold IC50 increase relative to wild-type [26] was 0.8 fold. It also gave a Fold IC50 increase relative to wild-type [27] of 1 fold, a Fold IC50 increase relative to wild-type [28] of 1.2 fold and a Fold IC50 increase relative to wild-type [29] of 0.6 fold. For the same binder, the IC50 neutralization [35] was 0.0346 µg/mL, the IC50 neutralization [36] was 0.0054 µg/mL and the IC50 neutralization [37] was 0.0052 µg/mL. It also gave an EC50 [30] of 0.2 µg/mL.
